From patent US8124742

B1: SH28 (Fab, V domains shown)
VH: EVQLLESGGGGVQPGRSLRLSCAASGFTFNSYAMYWVRQPPGKGLEWVAAIWYDGSNKEYADFVKGRFTISRDNSKNTLSLQMNSLRDEDTAVYYCAREANLLRGWSRYYYGMDVWGQGTTVTVSS
VL: AELTQSPSSLSASVGDRVTITCRADQNIRRSLNWFQQKPGKAPKLLIYAASSLQSGVPSRFSGSGSGTDFTLTISSLQPEDFATYYCQQSSSTPWTFGRGTKVEIKR
notes: Fab on M13 phage
B2: SH50 (Fab, V domains shown)
VH: EVQLLESGGGGVQPGRSLRLSCAASGFTFNSYAMYWVRQPPGKGLEWVAAIWYDGSNKEYADFVKGRFTISRDNSKNTLSLQMNSLRDEDTAVYYCAREANLLRGWSRYYYGMDVWGQGTTVTVSS
VL: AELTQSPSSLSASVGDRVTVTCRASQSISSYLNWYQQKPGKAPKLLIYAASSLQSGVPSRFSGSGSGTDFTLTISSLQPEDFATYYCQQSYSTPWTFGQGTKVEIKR
notes: Fab on M13 phage
B3: SH24 (Fab, V domains shown)
VH: EVQLLESGGGVAQPGRSLRLSCVASGFSLRSYGMHWVRQAPGKGLEWVADIWFDGSNKDYADSVKGRFTISRDNSKNTLYLQMNSLRAEDTAVYYCARDWRVRAFSSGWLSAFDIWGQGTMVTVSS
VL: AELTQSPSSLSASVGDRVTITCRASQSISTYLNWYQQRPGKAPNLLIYAASTLQRGVPSRFTGSGSGTDFTLTISSLQPEDFATYYCQQSYTTLWTFGQGTKMEIRR
notes: Fab on M13 phage
B4: SH14 (Fab, V domains shown)
VH: EVQLLESGGGVVQPGRSLRLSCAASGFTFSTYGMHWVRQAPGKGLEWVAVIWFDGSNKEYADSVKGRFTISRDNSKNTLYLQMNSLRAEDTAVYYCAREEVVRGVILWSRKFDYWGQGTLVTVSS
VL: AELTQSPSSLSASVGDRVTITCRASQNIRRSLNWYQHKPGRAPRLLIYAASTLQSGVPSRFRGSGSGTDFTLTINSLQPADFATYYCQQSSNTPWTFGHGTKVEIKR
notes: Fab on M13 phage
B5: SH21 (Fab, V domains shown)
VH: EVQLLESGGGVVQPGRSLRLSCAASGFTFSTYGMHWVRQAPGKGLEWVAVIWFDGSNKEYADSVKGRFTVSRDNSKNTLYLQMNSLRAEDTAVYYCAREEVVRGVILWSRKFDYWGQGTLVTVSS
VL: AELTQSPSFLSASVGDRVTITCRASQGIRSYLAWYQQKPGKAPKLLIYAASTLQSGVPSRFSGSGSGTEFTLTIASLQPDDFATYYCQQLNNYPPFTFGPGTKVDIKR
notes: Fab on M13 phage
B6: SH12 (Fab, V domains shown)
VH: EVQLLESGGGVVQPGRSLRLSCAASGFTFSTYGMHWVRQAPGKGLEWVAVIWFDGSNKEYADSVKGRFTVSRDNSKNTLYLQMNSLRAEDTAVYYCAREEVVRGVILWSRKFDYWGQGTLVTVSS
VL: AELTQSPFSLSASVGDRVTITCRASHNIYRSLNWFQHKPGEAPKLLVYAASSLQRGVPTRFSGSGSGTDFTLTISSLQPEDSATYFCQQSVTFPYTFGQGTKLEIRR
notes: Fab on M13 phage
B7: SH25 (Fab, V domains shown)
VH: VQLLEESGGGVVQPGRSLRLACAASGFSFRSYGMHWVRQAPGRGLEWVAFTWFDGSNKYYVDSVKGRFTISRDNSKNTLYLEMNSLRVDDTAVYYCAREAPMLRGISRYYYAMDVWGPGTTVTVSS
VL: AELTQSPSSLSASVGDRVTITCRASQNIRRSLNWYQQKPGKAPKLLIYAASSLQSGVPSRFSGSGSGTDFTLTISSLQPEDFATYYCQQSSNTPWTFGQGTKVEIKR
notes: Fab on M13 phage
B8: SH04 (Fab, V domains shown)
VH: EVQLLESGGGVVQPGRSLRLSCAASGFTFSTYGMHWVRQAPGKGLEWVAVIWFDGSNKEYADSVKGRFTISRDNSKNTLYLQMNSLRAEDTAVYYCAREEVVRGVILWSRKFDYWGQGTLVTVSS
VL: AELTQSPSSLSASVGDRVTITCRASQNIRRSLNWYQQKPGKAPKLLIYAASSLQSGVPSRFSGSGSGTDFTLTISSLQPEDFATYYCQQSSNTPWTFGQGTKVEIKR
notes: Fab on M13 phage
B9: SH08 (Fab, V domains shown)
VH: EVQLLESGGGVVQPGRSLRLSCAVSGFTLTNYGMHWVRQAPGKGLEWVAHVWYDGSKTEYADSVKGRFAVSRDKSKNTLFLQMNSLTAEDTAIYYCARERREKVYILFYSWLDRWGQGTLVTVSS
VL: AELTQSPSSLAASVGDRVTITCRANQTIRTSLNWYQQRPGKAPNLLIYGASRLHSGVPSRFSGGISGADFTLTISSLQPEDFATYYCQQTYGYSRTFGQGTKVDIKR
notes: Fab on M13 phage; also called SH8
B10: SH30 (Fab, V domains shown)
VH: EVQLLESGGGVVQPGRSLRLSCAVSGFTLTNYGMHWVRQAPGKGLEWVAHVWYDGSKTEYADSVKGRFAVSRDKSKNTLFLQMNSLTAEDTAIYYCARERREKVYILFYSWLDRWGQGTLVTVSS
VL: AELTQSPSSLSASVGDRVTITCRASQSIRRSLNWYQQSPGKTPKLLIYAASSLQSGVPSRFSGSGSGTDFTLTISSLQPEDFATYYCQQSYSTLTFGGGTKVEIKR
notes: Fab on M13 phage
B11: SH16 (Fab, V domains shown)
VH: EVQLLESGGGVVQPGRSLRLSCAASGFTFSSYGMHWVRQAPGRGLEWVALIWYDGGNKEYADSVKGRFSISRDNSKNTLYLQVNSLRADDTAVYYCARDQRAAAGIFYYSRMDVWGQGTTVTVSS
VL: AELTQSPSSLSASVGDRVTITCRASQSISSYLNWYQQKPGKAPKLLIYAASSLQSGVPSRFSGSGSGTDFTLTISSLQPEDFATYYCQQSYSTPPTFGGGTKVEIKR
notes: Fab on M13 phage
B12: SH10 (Fab, V domains shown)
VH: VQLLEESGGGVVQPGRSLRLSCAASGFTFSRNGMHWVRQAPGKGLEWVAFIWFDGSNKYYADSVKGRFTISRDNSKNTLYLQMNSLRADDTAVYYCAREEALFRGLTRWSYGMDVWGQGTTVSVSS
VL: AELQDPVVSVALGQTVRITCQGDGLRSYYASWYQQKPGQAPKLVMYGRNNRPSGIPGRFSGSSSGQTAALTITGTQAEDEADYYCQSRATSGNPVVFGGGTKLTVL
notes: Fab on M13 phage
B13: SH26 (Fab, V domains shown)
VH: EVQLLESGGGVVQPGRSLRLSCVVSGFTFNNYGMHWVRQAPGKGLEWVAVIWFDGSNKYYADSVKGRFTISRDNSKNTLYLQMNSLRAEDTAVYYCARENQIKLWSRYLYYFDYWGQGTLVTVSS
VL: AELTQSPSSLSASVGDRVTITCRASQSISSYLNWYQQKPGKAPKLLIYAASSLQSGVPSRFSGSGSGTDFTLTISSLQPEDFATYYCQQSYSFRRYSFGQGTKLEIKR
notes: Fab on M13 phage
B14: SH34 (Fab, V domains shown)
VH: EVQLLESGGGVVQPGRSLRLSCAASGFSFSSYGMHWVRQAPGKGLEWVAVISYDGTNKYFADSVKGRFTISRDNSKKTLYLQMTSLRPEDTAVYFCANLRGEVTRRASVPLDIWGQGTMVTVSS
VL: AELTQSPSSLSASVGDRVTITCRASQSISSYLNWYQQKPGKAPKLLIYAASGLQSGVPSRFSGSGSGTDFTLTISSLQPEDFATYYCQQSYSTPPYTFGQGTKLEIKR
notes: Fab on M13 phage
B15: SH18 (Fab, V domains shown)
VH: EVQLLESGGGVVQPGRSLRLSCAASGFTFRSYAMHWVRQAPGKGLEWVAATAYDGKNKYYADSVKGRFTISRDNSMNTLFLQMNSLRAEDTAVFYCARGGFYYDSSGYYGLRHYFDSWGQGTLVTVSS
VL: AELTQSPSSLSASVGDRVTITCRASQSISIALNWYQQRPGKAPKLLMYATSTLQSGVPSRFSGSGSGTDFTLTISSLQPEDFATYYCQQYYNKPTFGPGTKVDIKR
notes: Fab on M13 phage
B16: SH20 (Fab, V domains shown)
VH: VQLLEESGGGVVQPGRSLRLSCAASGFTFRSYAMHWVRQAPGKGLEWVAVISYDGSTIYYADSVKGRFTISRANSKNTLFLQMNSLRTEDTAVYYCTRGGFYYDSSGYYGLRHYFDYWGQGTLVTVSS
VL: AELTQSPFSLSASVGDRVTITCRASQSISRSLNWYQHKPGEAPKLLIYAASSLQRGVPPRFSGSGSGTDFTLTISSLQPEDFATYFCQQSVRIPYSFGQGTKLEIKR
notes: Fab on M13 phage
B17: SH32 (Fab, V domains shown)
VH: EVQLLESGGGVVQPGRSLRLSCEASKFTLYNYGMHWVRQAPGKGLEWVAFIWFDGSNKYYEDSVKGRFTVSRDNSKNTLYLQMNSLRAEDTAVYYCARELSKKVALSRYYYYMDVWGQGTTVTVSS
VL: AELTQEPSLTVSPGGTVTLTCASSTGAVTSRYFPNWFQQKPGQAPRALIYGSNNKHSWTPARFSGSLLGGKAALTLSGVQPEDEAEYYCLLFYAGAWAFGGGTKLTVL
notes: Fab on M13 phage
B18: SH36 (Fab, V domains shown)
VH: EVQLLESGGGVVQPGRSLRLSCEASKFTLYNYGMHWVRQAPGKGLEWVAFIWFDGSNKYYEDSVKGRFTVSRDNSKNTLYLQMNSLRAEDTAVYYCAREGSKKVALSRYYYYMDVWGQGTTVTVSS
VL: AELTQSPSSLSASVGDRVTITCRASQSISSYLNWYQQKPGKSPKLLIYAASSLQSGVPSRFSGSGSGTDFTLTISSLQPEDFATYYCQQSYSTPPAFGPGTKVDIKR
notes: Fab on M13 phage

Biological target: T1, human Rh(D) antigen on Rh(D)-positive red blood cells (human, UniProt Q02161 2-417)
T1 construct: whole, on cells; also called wt; wild type Rh(D)
T1 sequence (looked up): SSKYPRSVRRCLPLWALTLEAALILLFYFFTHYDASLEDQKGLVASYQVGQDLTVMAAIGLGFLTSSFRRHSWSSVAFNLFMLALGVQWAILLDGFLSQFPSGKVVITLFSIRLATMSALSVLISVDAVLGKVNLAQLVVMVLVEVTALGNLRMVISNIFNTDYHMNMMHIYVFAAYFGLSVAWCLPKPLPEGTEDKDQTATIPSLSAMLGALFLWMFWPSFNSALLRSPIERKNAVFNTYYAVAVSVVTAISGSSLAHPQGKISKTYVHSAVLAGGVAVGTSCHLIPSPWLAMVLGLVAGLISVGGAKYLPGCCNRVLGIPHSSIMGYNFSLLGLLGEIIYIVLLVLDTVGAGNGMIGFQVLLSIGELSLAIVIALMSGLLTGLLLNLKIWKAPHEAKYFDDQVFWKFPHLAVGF
Assay: agglutination, anti-M13
Description: The binding of anti-Rh(D) Fab/phage or soluble Fab molecules to normal or partial Rh(D) antigens was assessed by indirect agglutination assays as described (Siegel et al., 1994, Blood 83:2334; Siegel et al., 1997, J. Immunol. Meth. 206: 73). […] Following a one-hour incubation at 37° C., the RBCs were washed 3 times with 2 ml of cold PBS to remove unbound antibody. The resulting RBC pellets were resuspended in 100 μl of a 10 μg/ml solution of sheep anti-M13 antibody (5 Prime-3 Prime, Boulder, Colo.) for Fab/phage experiments or goat anti-human κ or λ light chain antibody (Tago, Burlingame, Calif.) for $\gamma_1\kappa$ or $\gamma_1\lambda$ soluble Fab experiments, respectively. The RBC suspensions were transferred to the round-bottomed wells of a 96-well microplate and left undisturbed for 2 hours. Negative reactions show sharp ~2 millimeter diameter RBC spots whereas the RBCs in agglutinated wells form a thin carpet coating the entire floor of the well (Siegel et al., 1997, J. Immunol. Meth. 206:73). Agglutination titers for recombinant antibodies were determined by performing serial 2-fold dilutions in 1% BSA/PBS.
Fifty-six randomly chosen colonies were selected, and monoclonal Fab/phage preparations were separately produced from each of these individual colonies, using the methods described herein in Example 1. Rh(D) specificity was determined by indirect agglutination using anti-M13 antibody, as described herein in Examples 1 and 2.

Row | Binder | binding result
1 | B1 | binds
2 | B2 | binds
3 | B3 | binds
4 | B4 | binds
5 | B5 | binds
6 | B6 | binds
7 | B7 | binds
8 | B8 | binds
9 | B9 | binds
10 | B10 | binds
11 | B11 | binds
12 | B12 | binds
13 | B13 | binds
14 | B14 | binds
15 | B15 | binds
16 | B16 | binds
17 | B17 | binds
18 | B18 | binds
